One data set concerns the target T1, PKCε (Homo sapiens, UniProt Q02156).
T1 sequence (Q02156 1-737): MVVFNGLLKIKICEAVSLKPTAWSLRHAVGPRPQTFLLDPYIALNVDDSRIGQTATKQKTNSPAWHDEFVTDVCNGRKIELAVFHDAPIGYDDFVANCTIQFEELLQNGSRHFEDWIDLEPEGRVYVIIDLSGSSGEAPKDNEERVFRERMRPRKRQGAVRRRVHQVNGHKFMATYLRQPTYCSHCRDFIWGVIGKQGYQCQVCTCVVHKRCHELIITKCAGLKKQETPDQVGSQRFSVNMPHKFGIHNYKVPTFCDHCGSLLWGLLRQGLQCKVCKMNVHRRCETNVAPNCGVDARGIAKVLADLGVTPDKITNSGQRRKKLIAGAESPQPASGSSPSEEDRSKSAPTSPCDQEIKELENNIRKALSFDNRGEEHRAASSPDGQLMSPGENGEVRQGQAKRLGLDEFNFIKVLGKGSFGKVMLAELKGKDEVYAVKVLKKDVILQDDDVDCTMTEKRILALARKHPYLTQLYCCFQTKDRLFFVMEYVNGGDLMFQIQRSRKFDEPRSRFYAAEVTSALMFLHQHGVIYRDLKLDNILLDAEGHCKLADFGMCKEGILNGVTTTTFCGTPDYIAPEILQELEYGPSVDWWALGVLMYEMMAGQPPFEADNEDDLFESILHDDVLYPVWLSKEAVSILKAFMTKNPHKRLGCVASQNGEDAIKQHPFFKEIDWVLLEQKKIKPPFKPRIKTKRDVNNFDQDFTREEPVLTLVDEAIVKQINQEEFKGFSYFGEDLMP
The experiment in a line: Cross-reactivity of PKCα-S10 with PKC isozymes. In kind it is biochemical. The note with it: peptide 1 μM, isozyme 2 ng. The procedure: With the kinetic parameters at hand it is possible to test the cross-reactivity of PKCα-S10 with PKC isozymes. In 12 separate reactions PKCα-S10 (1 μM) is subjected to phosphorylation with PKCα, PKCβI, PKCβII, PKCγ, PKCδ, PKCε, PKCζ, PKCη, PKCθ, PKCι, PKCμ and PKCν (2 ng).

Data set [1] can be described thus: Fluorescence increase, phosphopeptide vs unphosphorylated peptide at 485 nm. In kind it is physicochemical. To be noted: phosphopeptide / unphosphorylated peptide intensity at 485 nm, generally 10 mM Mg2+. Here is the method:
Fluorescence experiments were performed on a Fluoromax 3 from Jobin Yvon. 5 nm emission and excitation slit widths were used. For all experiments, an excitation wavelength of 360 nm was used. Enzyme assays were performed by monitoring emission at 485 nm.
After peptide characterization, emission spectra were obtained for unphosphorylated and phosphorylated peptides under appropriate conditions. The spectra were generally acquired in the presence of 10 mM Mg^2+(although lower Mg^2+concentrations can and have been used as well) and either 0, 0.1 or 1 mM ATP in a preselected buffer (usually 20 mM HEPES, pH 7.4). Relying on the emission spectra the fold fluorescence differences were measured by dividing the fluorescence intensity of the phosphopeptide by the fluorescence intensity of its unphosphorylated counterpart at 485 nm. FIG. 2 depicts the fluorescence spectra of the phosphorylated and unphosphorylated peptides in the appropriate assay mixture: (A) emissions scans of PKCβI-1 (10 μM), 10 mM Mg(II), 3×; (B) emissions scans of PKCβI-1 (10 μM), 10 mM Mg(II), 0 mM ATP, 3×.; (C) fluorescence difference for PKCβI-1 (10 μM), 10 mM Mg(II), 3×; (D) fluorescence increase for PKCβI-1 (10 μM) at 10 mM Mg (II).

For “Ac-RRR-C(Sox)-ASFRRKA-CONH2 [PKCα-S10(P10), Sox chemosensor with extended recognition domain for PKCα]”, the “activity of isozyme on peptide” value with PKCε is “very little activity”. In data set [1], the “Fluorescence Increase” value worked out at 3.9 x.

Source of the values: patent US8586570B2, “Sox-based kinase sensor” (Massachusetts Institute of Technology, priority 2006, dated 2013).
